Results as given in PMC3226441, “Generation of recombinant single-chain antibodies neutralizing the cytolytic activity of vaginolysin, the main virulence factor of Gardnerella vaginalis” (BMC Biotechnology, 2011).

B1: anti-VLY scFv 9B4 (VL-VH) (scFv, V domains shown)
VH: QVQLEQSGPGLVAPSESLTITCTVSGFSLNSYGVHWVRQPPGKGLEWVGVMWAGGNTSYNSALMSRLSISKDNSKSQVFLKMNSLQTDDTAIYYCARARGAMDYWGQGTSVTVSS
VL: DIVMTQTTSHLSVSLGDRVTIACKASAHINNWLAWYQQKPGNAPSLLIAGATGLETGVPSRFSGSGSGKDFTLSISSLQTEDVATYYCQQYWDTPYTFGGGTKLEIR
notes: also called 9B4-derived scFv (variant VL-VH); source: E. coli BL21(DE3), from inclusion bodies, renatured, purified (Ni-NTA); not shown: His6, N-terminal, kept
B2: anti-VLY scFv 9B4 (VH-VL) (scFv, V domains shown)
VH: B1 VH
VL: B1 VL
notes: also called 9B4-derived scFv (variant VH-VL); source: E. coli BL21(DE3), from inclusion bodies, renatured, purified (Ni-NTA); not shown: His6, N-terminal, kept
B3: anti-VLY scFv 23A2 (VL-VH) (scFv, V domains shown)
VH: QVQLEQSGAELVRSGASVKISCKASGYTFPSYNMHWVKQTPGQGLEWIGYIYPGNGVTNYNQKFKGKATLTADTSSSTAYMQISSLTSEDSAVYFCAREEGGNLLWGHFAMDYWGQGTSVTVSS
VL: DIVMTQTTLSLPVSLGDQASISCRSSQSLVHSNGNTYLHWYLQKPGQSPKLLIYKVSNRFSGVPDRFSGSGSGTDFTLKISRVEAEDLGVYFCSQSTHVPPTFGGGTKLEIR
notes: also called 23A2-derived scFv (variant VL-VH); source: E. coli BL21(DE3), from inclusion bodies, renatured, purified (Ni-NTA); not shown: His6, N-terminal, kept
B4: anti-VLY scFv 23A2 (VH-VL) (scFv, V domains shown)
VH: B3 VH
VL: B3 VL
notes: also called 23A2-derived scFv (variant VH-VL); source: E. coli BL21(DE3), from inclusion bodies, renatured, purified (Ni-NTA); not shown: His6, N-terminal, kept

Biological target: T1, vaginolysin (VLY), recombinant (Gardnerella vaginalis)
Experiment: cell-based or functional assay
Conditions: not given

B1 and B2 are within 1.5-fold of each other in other: 37 nM for the first, 51 nM for the second.

B3 and B4 are within 1.5-fold of each other in other: 110 nM for the first, 150 nM for the second.

Biological target: T1, vaginolysin (VLY), recombinant
Experiment: ELISA; indirect ELISA; recombinant purified VLY (5 μg/ml, 50 mM Na-carbonate pH 9.5) coated on MaxiSorp plates; scFv 50 μg/ml to 20 ng/ml, 1 h at RT; detected by anti-His5 MAb and HRP-labelled anti-mouse IgG; apparent Kd = molar concentration at the mid-point of the titration curve
Conditions: both partners purified

B1 and B2 are within 1.5-fold of each other in Kd: 11 nM for the first, 15 nM for the second.

B3 and B4 are within 1.5-fold of each other in Kd: 92 nM for the first, 98 nM for the second.
